Measurements as given in patent US20180179292.

Experiments:
[1] = molecular target: wild-type RKIP, cardiac transgene (RKIP-tg)
[2] = molecular target: RKIP^S153A, cardiac transgene

B1: G protein-coupled receptor kinase (GRK) in mouse heart lysates (protein)
chain: MADLEAVLADVSYLMAMEKSKATPAARASKKILLPEPSIRSVMQKYLEDRGEVTFEKIFSQKLGYLLFRDFCLNHLEEAKPLVEFYEEIKKYEKLETEEERVVRSREIFDSYIMKELLACSHPFSKNATEHVQGHLVKKQVPPDLFQPYIEEICQNLRGDVFQKFIESDKFTRFCQWKNVELNIHLTMNDFSVHRIIGRGGFGEVYGCRKADTGKMYAMKCLDKKRIKMKQGETLALNERIMLSLVSTGDCPFIVCMSYAFHTPDKLSFILDLMNGGDLHYHLSQHGVFSEADMRFYAAEIILGLEHMHNRFVVYRDLKPANILLDEHGHVRISDLGLACDFSKKRPHASVGTHGYMAPEVLQKGVAYDSSADWFSLGCMLFKLLRGHSPFRQHKTKDKHEIDRMTLTMAVELPDSFSPELRSLLEGLLQRDVNRRLGCLGRGAQEVKESPFFRSLDWQMVFLQKYPPPLIPPRGEVNAADAFDIGSFDEEDTKGIKLLDSDQELYRNFPLTISERWQQEVAETVFDTINAETDRLEARKKAKNKQLGHEEDYALGKDCIVHGYMSKMGNPFLTQWQRRYFYLFPNRLEWRGEGEAPQSLLTMEEIQSVEETQIKERKCLLLKIRGGKQFVLQCDSDPELVQWKKELRDAYREAQQLVQRVPKMKNKPRSPVVELSKVPLIQRGSANGL
GRK activity (in vitro rhodopsin phosphorylation with heart lysates; immunoblot of β2AR phosphorylation) [1]: GRK activity was significantly reduced in mouse hearts of RKIP-tg | GRK activity (in vitro rhodopsin phosphorylation with heart lysates; immunoblot of β2AR phosphorylation) [2]: GRK activity was significantly reduced in mouse hearts of RKIP-tg but not of RKIP^S153A mice
